The values that follow are results of earlier work, collected in PMC8152036.

Holding throughout (assay): SPR
Series [1] addresses RNase J1 (Bacillus subtilis) (UniProt Q45493).
Series [2] deals with RNase Y (Bacillus subtilis) (UniProt O31774).
The next series concerns the target PfkA (Bacillus subtilis) (UniProt O34529).

pKd: −log10 of the molar value.

Chain of UniProt O31774 (O31774 whole entry): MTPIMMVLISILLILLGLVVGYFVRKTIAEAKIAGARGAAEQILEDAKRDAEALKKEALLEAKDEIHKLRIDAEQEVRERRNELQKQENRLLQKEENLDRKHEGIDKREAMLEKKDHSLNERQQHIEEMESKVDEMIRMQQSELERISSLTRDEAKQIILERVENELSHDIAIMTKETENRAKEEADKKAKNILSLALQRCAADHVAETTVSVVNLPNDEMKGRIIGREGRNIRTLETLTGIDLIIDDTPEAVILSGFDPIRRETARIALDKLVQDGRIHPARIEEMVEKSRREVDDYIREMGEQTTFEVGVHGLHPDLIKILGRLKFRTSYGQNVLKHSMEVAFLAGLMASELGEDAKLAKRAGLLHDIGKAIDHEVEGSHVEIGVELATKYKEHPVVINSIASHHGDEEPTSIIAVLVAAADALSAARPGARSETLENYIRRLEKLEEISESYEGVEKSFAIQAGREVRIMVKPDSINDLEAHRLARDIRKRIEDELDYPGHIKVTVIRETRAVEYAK
Chain of UniProt O34529 (O34529 whole entry): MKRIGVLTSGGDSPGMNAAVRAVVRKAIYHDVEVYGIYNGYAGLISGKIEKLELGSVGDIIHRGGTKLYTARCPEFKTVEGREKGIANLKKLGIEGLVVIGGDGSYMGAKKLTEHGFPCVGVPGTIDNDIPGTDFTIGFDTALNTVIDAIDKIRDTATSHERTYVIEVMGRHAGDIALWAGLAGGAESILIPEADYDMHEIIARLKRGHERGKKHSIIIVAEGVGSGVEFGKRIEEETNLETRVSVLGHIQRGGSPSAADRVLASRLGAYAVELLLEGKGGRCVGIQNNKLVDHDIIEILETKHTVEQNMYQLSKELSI
Chain of UniProt Q45493 (Q45493 whole entry): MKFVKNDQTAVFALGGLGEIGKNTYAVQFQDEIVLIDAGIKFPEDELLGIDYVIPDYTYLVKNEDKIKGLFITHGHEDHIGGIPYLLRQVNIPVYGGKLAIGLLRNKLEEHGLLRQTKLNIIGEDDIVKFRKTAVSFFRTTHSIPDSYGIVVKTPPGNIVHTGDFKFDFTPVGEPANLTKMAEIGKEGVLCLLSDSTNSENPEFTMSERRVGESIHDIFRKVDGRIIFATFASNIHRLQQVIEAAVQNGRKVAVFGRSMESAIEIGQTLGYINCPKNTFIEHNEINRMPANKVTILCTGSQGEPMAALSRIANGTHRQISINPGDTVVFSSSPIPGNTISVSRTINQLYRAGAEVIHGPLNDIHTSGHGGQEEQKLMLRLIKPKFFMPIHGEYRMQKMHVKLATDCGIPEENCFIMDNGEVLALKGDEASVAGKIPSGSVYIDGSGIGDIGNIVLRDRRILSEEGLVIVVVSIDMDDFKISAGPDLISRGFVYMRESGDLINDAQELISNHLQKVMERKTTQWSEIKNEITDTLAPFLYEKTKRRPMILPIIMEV

Consider PNPase (from UniProt P50849), for which the pKd in series [1] was 6.60; in series [2], 8.30.

On to Enolase (from UniProt P37869), for which the pKd in the series with PfkA (Bacillus subtilis) is 7.40; in series [2], 7.00.
